Laboratory results taken from the supplement of paper PMC6379048.

Columns and labels:
Assay in all cases: EC50 of free RNA motif oligo competing protein binding to immobilised probe
KHSRP = biological target: T1, KHSRP (UniProt Q92945)
T1 sequence: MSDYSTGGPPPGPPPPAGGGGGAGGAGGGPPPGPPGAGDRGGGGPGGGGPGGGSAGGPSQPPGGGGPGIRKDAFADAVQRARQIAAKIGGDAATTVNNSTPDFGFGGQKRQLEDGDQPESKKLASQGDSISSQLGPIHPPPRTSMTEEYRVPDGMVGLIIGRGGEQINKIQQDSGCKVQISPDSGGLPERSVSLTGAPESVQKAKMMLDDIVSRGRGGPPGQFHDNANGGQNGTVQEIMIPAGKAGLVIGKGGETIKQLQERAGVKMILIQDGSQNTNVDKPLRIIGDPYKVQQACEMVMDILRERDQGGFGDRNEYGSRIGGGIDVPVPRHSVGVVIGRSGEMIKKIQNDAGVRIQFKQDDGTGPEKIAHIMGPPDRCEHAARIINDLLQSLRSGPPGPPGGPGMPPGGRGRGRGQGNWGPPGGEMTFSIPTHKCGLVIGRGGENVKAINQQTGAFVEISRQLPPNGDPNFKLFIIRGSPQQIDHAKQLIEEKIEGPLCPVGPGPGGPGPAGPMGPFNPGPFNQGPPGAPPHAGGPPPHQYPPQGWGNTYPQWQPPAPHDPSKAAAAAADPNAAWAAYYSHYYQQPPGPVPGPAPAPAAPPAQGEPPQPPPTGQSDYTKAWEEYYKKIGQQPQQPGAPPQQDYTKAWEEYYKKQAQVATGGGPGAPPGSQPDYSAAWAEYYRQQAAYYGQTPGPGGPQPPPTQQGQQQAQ
In short: (§1)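 To obtain EC50, data were fitted with a four-parameter log-logistic model; Kd was then EC50 multiplied by a protein-dependent depletion factor. Beforehand, free RNA oligos (0 nM to 30 μM) were pre-incubated with HEK293-FT lysate (2.5 mg protein/well) for 1 h at 4°C. The lysate then spent 30 min at 4°C with the same 5′-amino-C6 oligos coupled to NHS-Sepharose beads, and bound proteins were quantified by label-free LC-MS/MS, normalised to the control.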

TOE1 = TOE1 (UniProt Q96GM8)
In short: as §1

XRN1 = XRN1 (UniProt Q8IZH2)
Sequence of XRN1 (Q8IZH2 whole entry): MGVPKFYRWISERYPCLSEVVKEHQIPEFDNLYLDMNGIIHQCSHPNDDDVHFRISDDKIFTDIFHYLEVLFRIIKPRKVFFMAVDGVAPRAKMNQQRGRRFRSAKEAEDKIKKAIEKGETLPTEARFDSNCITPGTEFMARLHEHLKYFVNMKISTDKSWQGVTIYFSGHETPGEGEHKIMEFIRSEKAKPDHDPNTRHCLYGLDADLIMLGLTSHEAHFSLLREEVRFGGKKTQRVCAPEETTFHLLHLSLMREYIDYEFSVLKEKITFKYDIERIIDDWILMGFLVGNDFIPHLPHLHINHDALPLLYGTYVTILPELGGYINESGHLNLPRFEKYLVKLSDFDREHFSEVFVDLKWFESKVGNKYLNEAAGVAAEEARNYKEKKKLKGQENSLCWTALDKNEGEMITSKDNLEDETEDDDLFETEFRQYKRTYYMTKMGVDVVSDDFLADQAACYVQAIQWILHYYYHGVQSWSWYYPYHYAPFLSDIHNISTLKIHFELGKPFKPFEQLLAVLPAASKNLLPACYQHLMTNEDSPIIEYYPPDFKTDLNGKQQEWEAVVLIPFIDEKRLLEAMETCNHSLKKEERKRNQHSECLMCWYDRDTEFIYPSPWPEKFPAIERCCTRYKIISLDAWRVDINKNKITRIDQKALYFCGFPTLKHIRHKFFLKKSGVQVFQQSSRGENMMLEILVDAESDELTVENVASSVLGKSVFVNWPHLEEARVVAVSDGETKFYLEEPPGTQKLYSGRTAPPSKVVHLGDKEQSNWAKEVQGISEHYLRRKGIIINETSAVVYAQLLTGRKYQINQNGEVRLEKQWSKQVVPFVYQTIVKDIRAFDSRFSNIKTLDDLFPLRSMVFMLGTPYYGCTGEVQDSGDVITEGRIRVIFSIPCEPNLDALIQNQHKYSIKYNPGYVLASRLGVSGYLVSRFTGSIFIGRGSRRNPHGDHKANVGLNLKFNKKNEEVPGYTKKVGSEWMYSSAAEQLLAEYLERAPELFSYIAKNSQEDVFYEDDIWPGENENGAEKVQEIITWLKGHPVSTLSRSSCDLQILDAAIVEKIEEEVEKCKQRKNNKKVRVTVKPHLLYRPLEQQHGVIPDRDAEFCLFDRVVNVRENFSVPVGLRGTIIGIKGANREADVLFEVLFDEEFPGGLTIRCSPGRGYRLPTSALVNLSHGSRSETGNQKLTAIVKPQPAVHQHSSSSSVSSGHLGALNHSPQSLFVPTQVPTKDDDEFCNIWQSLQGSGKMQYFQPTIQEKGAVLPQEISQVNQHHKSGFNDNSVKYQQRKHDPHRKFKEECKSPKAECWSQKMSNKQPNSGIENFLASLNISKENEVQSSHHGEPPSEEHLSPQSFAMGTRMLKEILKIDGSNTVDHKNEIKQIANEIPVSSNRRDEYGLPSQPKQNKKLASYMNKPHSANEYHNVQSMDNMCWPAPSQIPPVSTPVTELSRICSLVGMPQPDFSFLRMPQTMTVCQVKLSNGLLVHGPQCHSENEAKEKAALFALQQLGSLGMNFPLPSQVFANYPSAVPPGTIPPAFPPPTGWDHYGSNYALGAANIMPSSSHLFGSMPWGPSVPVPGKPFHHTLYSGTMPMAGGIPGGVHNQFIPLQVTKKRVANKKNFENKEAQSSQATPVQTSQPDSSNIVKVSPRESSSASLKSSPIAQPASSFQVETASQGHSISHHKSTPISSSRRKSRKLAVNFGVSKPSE
In short: as §1

LSM3 = LSM3 (UniProt P62310)
Sequence of LSM3 (P62310 whole entry): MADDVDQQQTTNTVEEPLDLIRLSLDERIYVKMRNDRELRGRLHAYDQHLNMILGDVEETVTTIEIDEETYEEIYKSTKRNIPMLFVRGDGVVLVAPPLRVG
In short: as §1

RBMS2 = biological target: T2, RBMS2 (UniProt Q15434)
T2 sequence: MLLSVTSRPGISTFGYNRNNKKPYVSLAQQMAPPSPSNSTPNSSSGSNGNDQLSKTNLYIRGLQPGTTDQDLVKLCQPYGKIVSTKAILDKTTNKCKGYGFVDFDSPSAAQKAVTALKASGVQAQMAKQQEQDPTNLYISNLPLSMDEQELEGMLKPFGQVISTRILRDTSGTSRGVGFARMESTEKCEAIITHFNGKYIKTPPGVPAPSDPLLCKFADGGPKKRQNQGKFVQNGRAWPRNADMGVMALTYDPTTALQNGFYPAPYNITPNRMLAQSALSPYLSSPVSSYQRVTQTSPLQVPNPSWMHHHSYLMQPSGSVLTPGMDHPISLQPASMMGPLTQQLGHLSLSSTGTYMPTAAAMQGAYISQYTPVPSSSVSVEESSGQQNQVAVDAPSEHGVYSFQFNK
In short: as §1

Row | Sequence | EC50 (KHSRP) [nM] | EC50 (TOE1) [nM] | EC50 (XRN1) [nM] | EC50 (LSM3) [nM] | EC50 (RBMS2) [nM]
1 | AAUAAA | 2220 | 2110 | 440 | 358 | 1290
2 | UAUUUAU | 1730 | 1420 | 196 | 694 | 545
